The values below come from US11673947B2, “Target tissue-specific antigen-binding molecule” (Chugai Seiyaku Kabushiki Kaisha, priority 2012, dated 2023).

Test [1] relates to BaF/hIL6R (Ba/F3 cells expressing human IL-6 receptor). Nature of the test: ADCC (chrome release) with human PBMC as effector cells against BaF/hIL6R cells. The test is classed as cell-based. The protocol:
Variant 6RNMSC1-2_F02 with increased effector activity (the heavy chain and light chain sequences are shown in SEQ ID NOs: 94 and 91, respectively) was used. At various concentrations of 6RNMSC1-2_F02, ADCC activity against hIL-6R-expressing cells was assayed in the presence or absence of kynurenine according to the method described in Reference Example 1.
Furthermore, there is a difference in the kynurenine concentration between normal and tumor tissues, and thus it is preferable that the ADCC activity of an antibody is exerted against antigen-expressing tumor cells only at the kynurenine concentration in tumor tissues, while at the normal-tissue kynurenine concentration, the ADCC activity is impaired or not exerted. Then, 6RNMSC1-2_F02 was assessed for ADCC activity against hIL-6R-expressing cells at various kynurenine concentrations according to the method described in Reference Example 2. […] Furthermore, in contrast to the approximately 10% ADCC activity at 4 to 6 μM which is considered to be the kynurenine concentration in normal tissues, the ADCC activity at 30 to 40 μM which is considered to be the kynurenine concentration in tumor tissues was about 25%.
Antibodies that bind antigens in a kynurenine-dependent manner were assessed for their ADCC activity against antigen-expressing cells at different antibody concentrations according to the method described below. Human peripheral blood mononuclear cells (hereinafter referred to as human PBMC) were used as effector cells to measure the ADCC activity of each test antibody as follows.
Syringes pre-filled with 200 μl of 1000 units/ml heparin solution (Novo-Heparin 5000 units for Injection; Novo Nordisk) were used to collect 50 ml of peripheral blood from healthy volunteers (male adult) affiliated with Chugai Pharmaceutical Co. Ltd. The peripheral blood was diluted two-fold with PBS(−), and divided into four equal parts, each of which was transferred into a pre-centrifuged leukocyte separation tube Leucosep (Greiner Bio-One) containing 15 ml of Ficoll-Paque PLUS. The separation tubes containing an aliquot of the peripheral blood were centrifuged at 2150 rpm for ten minutes at room temperature. Then, the resulting mononuclear cell fractions were collected from the tubes. The cells in each fraction were washed once with RPMI-1640 (nacalai tesque) supplemented with 10% FBS (hereinafter referred to as 10% FBS/RPMI), and then suspended at a cell density of 1×10^7 cells/ml in 10% FBS/RPMI. The cell suspensions were used as the human PBMC solution in subsequent experiments. […]
ADCC activity was assessed based on specific chrome release rate determined by chrome release assay. […]

The target in the next test is T1, hIL-6R (Homo sapiens, UniProt P08887).
T1 sequence (P08887 20-355 limits assumed): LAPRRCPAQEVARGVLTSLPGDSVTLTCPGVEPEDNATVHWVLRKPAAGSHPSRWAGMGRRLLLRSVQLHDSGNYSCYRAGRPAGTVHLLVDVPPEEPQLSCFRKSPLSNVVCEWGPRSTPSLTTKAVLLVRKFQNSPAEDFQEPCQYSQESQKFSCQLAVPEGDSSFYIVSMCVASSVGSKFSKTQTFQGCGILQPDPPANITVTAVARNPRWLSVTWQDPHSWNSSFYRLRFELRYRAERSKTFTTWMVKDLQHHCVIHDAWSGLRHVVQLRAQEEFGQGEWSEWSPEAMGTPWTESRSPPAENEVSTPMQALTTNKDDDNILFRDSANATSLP
The experiment in a line: IgG ELISA, binding to hIL-6R in mouse serum with or without kynurenine. The settings on record: Table 20: condition 1 (mouse serum without kynurenine) vs condition 2 (mouse serum in the presence of kynurenine). The protocol: As described in Example 14, antibody 6RNMSC1-2_F02 which has antigen-binding activity in the presence of kynurenine, and the known anti-hIL-6R antibody MRA were subjected to ELISA under the two conditions described in Table 20. The antigen used was biotin-labeled hIL-6R.
First, a StreptaWell 96 microtiter plate (Roche) was coated at room temperature for one hour or more with 100 μl of PBS containing the biotin-labeled antigen. After washing with Wash buffer to remove unbound antigen from the plate, each well was blocked for one hour or more with 250 μl of Blocking Buffer. After Blocking Buffer was removed from each well, each of the purified IgGs was prepared to 2.5 μg/ml under condition 2 shown in Table 20, and aliquoted at 100 μl into the plate. The plate was allowed to stand at room temperature for one hour to allow binding of each IgG to the antigen in each well. After washing with Wash Buffer containing 100 μM kynurenine, an HRP-conjugated anti-human IgG antibody (BIOSOURCE) diluted with Sample Buffer containing kynurenine was added to each well. The plate was incubated for one hour. Following wash with Wash Buffer containing kynurenine, the TMB single solution (ZYMED) was added to each well. The chromogenic reaction in the solution of each well was terminated by adding sulfuric acid. Then, the developed color was assessed by measuring absorbance at 450 nm.
(ELISA stands for enzyme-linked immunosorbent assay.)

B1: 6RNMSC1-2_F02: antibody that binds to hIL-6R in the presence of kynurenine; SEQ ID NOs: 86 and 87 (antibody, listed as Homo sapiens, V domains shown)
VH: QVQLVQSGAEVKKPGSSVKVSCKASGGTFSSYAISWVRQAPGQGLEWMGGIIPIFGTANYAQKFQGRVTITADESTSTAYMELSSLRSEDTAVYYCARDAPVVARPRGAFDIWGQGTMVTVSS
VL: DIVMTQTPLSSPVTLGQPASISCRSSQSLVHSDGNTYLSWLQQRPGQPPRLLIHEISNRFSGVPDRFSGSGAGTNFTLKISRVEAEDVGVYYCMQATQFPRTFGQGTKVEIK
On to B1, for which the ADCC activity result was “approximately 10%” in test [1] (at 4 to 6 μM kynurenine (considered the concentration in normal tissues)) and “about 25%” in test [1] (at 30 to 40 μM kynurenine (considered the concentration in tumor tissues)). Moreover, the “ADCC activity against hIL-6R-expressing cells” value in test [1] (in the presence of kynurenine, various antibody concentrations, variant with increased effector activity) is listed as “induced by 6RNMSC1-2_F02 in an antibody concentration-dependent manner”. The “ADCC activity against hIL-6R-expressing cells at various kynurenine concentrations” value in test [1] (various kynurenine concentrations) is “kynurenine concentration-dependent manner”. In addition, in the test with hIL-6R, the “absorbance under condition 1 as compared to condition 2” value is “markedly lower”.
